From PMC314469, “Protein Interaction Networks by Proteome Peptide Scanning” (PLoS Biology, 2004)

T1: Myo5 SH3 (MYO5_YEAST), Q04439
T1 chain: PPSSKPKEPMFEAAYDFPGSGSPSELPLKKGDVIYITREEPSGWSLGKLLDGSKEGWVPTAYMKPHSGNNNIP


Molecular target: T1, Myo5 SH3 (MYO5_YEAST), Q04439
Experiment: SPOT array

normalised SPOT signal, Boehringer light units (BLU); mean over the file's lines of this peptide	Binder
1100	QASMLRRPSLPHID [YKR077W 284-297]
134	QPAQFMPPQDPAAA [YIL109C 25-38]
139	QELPMEVPKEPAPA [YLR399C 121-134]
187	QPQAYHLPGNPYST [YNL278W 921-934]
95700	PPPPPPPPPVPA [YNL271C 1240-1251]
86	PPEGFPEPLNPTNF [YIL005W 29-42]
192	PPLDFEQPRLPSTA [YAL017W 90-103]
240	QENPYIIPLPPSST [YBR212W 12-25]
84.4	QFSGLLEPSLPNNM [YJL046W 318-331]
38500	PPPPLPPPLFPSSS [YER033C 119-132]
153	PPPDFNDPTAPLSS [YGL014W 93-106]
6720	PPMAYNRPVYPPPQ [YOR197W 87-100]
121	QFSPMDDPKSPTPM [YCL029C 108-121]
46.1	QLIGFGNPKNPFAL [YIL151C 523-536]
370	QLRSLFKPFGPILN [YBR212W 375-388]
119	QELRFLVPLVPLLV [YOR149C 314-327]
126	QPAQLQEPQEPLST [YMR148W 78-91]
154	QFQKLVPPTLPENV [YIL132C 50-63]
248	PPPPMGQPKDPKFE [YKL129C 1112-1125]
222	PPQTHQSPPPPPQQ [YBR289W 73-86]
91.3	PPKLLVYPESPETN [YBR279W 23-36]
178	QLVTLISPYDPNFK [YJR119C 479-492]
155	QEISLIDPSTPDKA [YGR083C 349-362]
